Data published in patent US20150203577A1 (Chugai, published 2015).

How the values were obtained:
[1] = molecular target: T1, mouse FcγRIII (mouse, UniProt P08508 31-215); experiment: SPR (Biacore), KD of H237-mIgG1/MRAL-k0 (same run) / KD of variant
T1 construct: Extracellular domain with C-terminal His tag, made in FreeStyle 293 cells; also called mFcγRIII; mFcgRIII
T1 chain: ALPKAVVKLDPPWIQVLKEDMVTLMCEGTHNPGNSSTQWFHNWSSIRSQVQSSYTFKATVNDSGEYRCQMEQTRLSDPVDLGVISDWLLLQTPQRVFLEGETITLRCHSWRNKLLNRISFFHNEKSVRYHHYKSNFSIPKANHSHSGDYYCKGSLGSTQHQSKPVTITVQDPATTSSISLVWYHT
Protocol: (§1) Each altered antibody was analyzed for its interaction with each Fcγ receptor prepared above using Biacore T100 (GE Healthcare Japan Corp.), Biacore T200 (GE Healthcare Japan Corp.), Biacore A100, or Biacore 4000. The running buffer used was HBS-EP+ (GE Healthcare Japan Corp.). The assay temperature was set to 25° C. The sensor chips used were chips prepared by immobilizing Protein L (ACTIGEN or BioVision) onto Series S Sensor Chip CM5 (GE Healthcare Japan Corp.) or Series S Sensor Chip CM4 (GE Healthcare Japan Corp.) by the amine coupling method.
(§2) In order to calculate the KD value of each altered antibody for FcγR, kinetic analysis was conducted according to the following method: first, the antibody of interest was captured onto any of these chips and allowed to interact with mFcγR diluted with a running buffer. For the obtained sensorgram, the assay results were globally fit into the 1:1 Langmuir binding model using Biacore Evaluation Software to calculate an association rate constant ka (L/mol/s) and a dissociation rate constant kd (1/s). From these values, the dissociation constant KD (mol/L) was calculated.

[2] = molecular target: T2, mouse FcγRII (mouse, UniProt P08101 30-210); experiment: as above
T2 construct: Extracellular domain with C-terminal His tag, made in FreeStyle 293 cells; also called mFcγRII; mFcgRII
T2 sequence: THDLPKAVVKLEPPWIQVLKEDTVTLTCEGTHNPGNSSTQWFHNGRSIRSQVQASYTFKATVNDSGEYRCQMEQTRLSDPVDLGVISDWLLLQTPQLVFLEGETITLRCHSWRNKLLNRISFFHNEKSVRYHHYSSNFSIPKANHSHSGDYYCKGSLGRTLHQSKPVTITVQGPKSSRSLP
Protocol: as §1, §2

[3] = molecular target: T1, mouse FcγRIII; experiment: SPR (Biacore), antibody captured on Protein L
Protocol: as §1, §2

[4] = molecular target: T2, mouse FcγRII; experiment: SPR (Biacore), antibody captured on Protein L
Protocol: as §1, §2

B1: H237-MB624/MRAL-k0 (antibody, mouse IgG1, kappa)
heavy: QVQLQESGPGLVKPSETLSLTCAVSGHSISHDHAWSWVRQPPGEGLEWIGFISYSGITNYNPSLQGRVTISRDNSKNTLYLQMNSLRAEDTAVYYCARSLARTTAMDYWGEGTLVTVSSAKTTPPSVYPLAPGSAAQTNSMVTLGCLVKGYFPEPVTVTWNSGSLSSGVHTFPAVLQSDLYTLSSSVTVPSSTWPSETVTCNVAHPASSTKVDKKIVPRDCGCKPCICEDYEVELVFIFPPKPKDVLTITLTPKVTCVVVDISKDDPEVQFSWFVDDVEVHTAQTQPREEQFNSTFRSVSELPIMHQDWLNGKEFKCRVNSAAFPAPIEKTISKTKGRPKAPQVYTIPPPKEQMAKDKVSLTCMITDFFPEDITVEWQWNGQPAENYKNTQPIMDTDGSYFVYSKLNVQKSNWEAGNTFTCSVLHEGLHNHHTEKSLSHSPGK
light: not shown
notes: copies: 2 + 2
- relative mFcγRIII-binding activity (mIgG1 = 1) [1]: 0.11 fold
- relative mFcγRII-binding activity (mIgG1 = 1) [2]: 0.88 fold
- Kd [3]: 2870 nM
- Kd [4]: 263 nM

B2: H237-MB641/MRAL-k0 (antibody, mouse IgG1, kappa)
heavy: QVQLQESGPGLVKPSETLSLTCAVSGHSISHDHAWSWVRQPPGEGLEWIGFISYSGITNYNPSLQGRVTISRDNSKNTLYLQMNSLRAEDTAVYYCARSLARTTAMDYWGEGTLVTVSSAKTTPPSVYPLAPGSAAQTNSMVTLGCLVKGYFPEPVTVTWNSGSLSSGVHTFPAVLQSDLYTLSSSVTVPSSTWPSETVTCNVAHPASSTKVDKKIVPRDCGCKPCICEAYEVEYVFIFPPKPKDVLTITLTPKVTCVVVDISKDDPEVQFSWFVDDVEVHTAQTQPREEQFNSTFRSVSELPIMHQDWLNGKEFKCRVNSAAFPAPIEKTISKTKGRPKAPQVYTIPPPKEQMAKDKVSLTCMITDFFPEDITVEWQWNGQPAENYKNTQPIMDTDGSYFVYSKLNVQKSNWEAGNTFTCSVLHEGLHNHHTEKSLSHSPGK
light: not shown
notes: copies: 2 + 2
- relative mFcγRIII-binding activity (mIgG1 = 1) [1]: 0.15 fold
- relative mFcγRII-binding activity (mIgG1 = 1) [2]: 1.62 fold
- Kd [3]: 2100 nM
- Kd [4]: 143 nM

B3: H237-MB625/MRAL-k0 (antibody, mouse IgG1, kappa)
heavy: QVQLQESGPGLVKPSETLSLTCAVSGHSISHDHAWSWVRQPPGEGLEWIGFISYSGITNYNPSLQGRVTISRDNSKNTLYLQMNSLRAEDTAVYYCARSLARTTAMDYWGEGTLVTVSSAKTTPPSVYPLAPGSAAQTNSMVTLGCLVKGYFPEPVTVTWNSGSLSSGVHTFPAVLQSDLYTLSSSVTVPSSTWPSETVTCNVAHPASSTKVDKKIVPRDCGCKPCICENYEVELVFIFPPKPKDVLTITLTPKVTCVVVDISKDDPEVQFSWFVDDVEVHTAQTQPREEQFNSTFRSVSELPIMHQDWLNGKEFKCRVNSAAFPAPIEKTISKTKGRPKAPQVYTIPPPKEQMAKDKVSLTCMITDFFPEDITVEWQWNGQPAENYKNTQPIMDTDGSYFVYSKLNVQKSNWEAGNTFTCSVLHEGLHNHHTEKSLSHSPGK
light: not shown
notes: copies: 2 + 2
- relative mFcγRIII-binding activity (mIgG1 = 1) [1]: 0.14 fold
- relative mFcγRII-binding activity (mIgG1 = 1) [2]: 0.74 fold
- Kd [3]: 2310 nM
- Kd [4]: 312 nM

B4: H237-MB640/MRAL-k0 (antibody, mouse IgG1, kappa)
heavy: QVQLQESGPGLVKPSETLSLTCAVSGHSISHDHAWSWVRQPPGEGLEWIGFISYSGITNYNPSLQGRVTISRDNSKNTLYLQMNSLRAEDTAVYYCARSLARTTAMDYWGEGTLVTVSSAKTTPPSVYPLAPGSAAQTNSMVTLGCLVKGYFPEPVTVTWNSGSLSSGVHTFPAVLQSDLYTLSSSVTVPSSTWPSETVTCNVAHPASSTKVDKKIVPRDCGCKPCICQPNEVENVFIFPPKPKDVLTITLTPKVTCVVVDISKDDPEVQFSWFVDDVEVHTAQTQPREEQFNSTFRSVSELPIMHQDWLNGKEFKCRVNSAAFPAPIEKTISKTKGRPKAPQVYTIPPPKEQMAKDKVSLTCMITDFFPEDITVEWQWNGQPAENYKNTQPIMDTDGSYFVYSKLNVQKSNWEAGNTFTCSVLHEGLHNHHTEKSLSHSPGK
light: not shown
notes: copies: 2 + 2
- relative mFcγRIII-binding activity (mIgG1 = 1) [1]: 0.21 fold
- relative mFcγRII-binding activity (mIgG1 = 1) [2]: 1.17 fold
- Kd [3]: 1550 nM
- Kd [4]: 197 nM

B5: H237-MB626/MRAL-k0 (antibody, mouse IgG1, kappa)
heavy: QVQLQESGPGLVKPSETLSLTCAVSGHSISHDHAWSWVRQPPGEGLEWIGFISYSGITNYNPSLQGRVTISRDNSKNTLYLQMNSLRAEDTAVYYCARSLARTTAMDYWGEGTLVTVSSAKTTPPSVYPLAPGSAAQTNSMVTLGCLVKGYFPEPVTVTWNSGSLSSGVHTFPAVLQSDLYTLSSSVTVPSSTWPSETVTCNVAHPASSTKVDKKIVPRDCGCKPCICETYEVELVFIFPPKPKDVLTITLTPKVTCVVVDISKDDPEVQFSWFVDDVEVHTAQTQPREEQFNSTFRSVSELPIMHQDWLNGKEFKCRVNSAAFPAPIEKTISKTKGRPKAPQVYTIPPPKEQMAKDKVSLTCMITDFFPEDITVEWQWNGQPAENYKNTQPIMDTDGSYFVYSKLNVQKSNWEAGNTFTCSVLHEGLHNHHTEKSLSHSPGK
light: not shown
notes: copies: 2 + 2
- relative mFcγRIII-binding activity (mIgG1 = 1) [1]: 0.14 fold
- relative mFcγRII-binding activity (mIgG1 = 1) [2]: 0.89 fold
- Kd [3]: 2370 nM
- Kd [4]: 261 nM

B6: H237-MB642/MRAL-k0 (antibody, mouse IgG1, kappa)
heavy: QVQLQESGPGLVKPSETLSLTCAVSGHSISHDHAWSWVRQPPGEGLEWIGFISYSGITNYNPSLQGRVTISRDNSKNTLYLQMNSLRAEDTAVYYCARSLARTTAMDYWGEGTLVTVSSAKTTPPSVYPLAPGSAAQTNSMVTLGCLVKGYFPEPVTVTWNSGSLSSGVHTFPAVLQSDLYTLSSSVTVPSSTWPSETVTCNVAHPASSTKVDKKIVPRDCGCKPCICEDYEVEYVFIFPPKPKDVLTITLTPKVTCVVVDISKDDPEVQFSWFVDDVEVHTAQTQPREEQFNSTFRSVSELPIMHQDWLNGKEFKCRVNSAAFPAPIEKTISKTKGRPKAPQVYTIPPPKEQMAKDKVSLTCMITDFFPEDITVEWQWNGQPAENYKNTQPIMDTDGSYFVYSKLNVQKSNWEAGNTFTCSVLHEGLHNHHTEKSLSHSPGK
light: not shown
notes: copies: 2 + 2
- relative mFcγRIII-binding activity (mIgG1 = 1) [1]: 0.1 fold
- relative mFcγRII-binding activity (mIgG1 = 1) [2]: 1.65 fold
- Kd [3]: 5110 nM
- Kd [4]: 197 nM

B7: H237-MB643/MRAL-k0 (antibody, mouse IgG1, kappa)
heavy: QVQLQESGPGLVKPSETLSLTCAVSGHSISHDHAWSWVRQPPGEGLEWIGFISYSGITNYNPSLQGRVTISRDNSKNTLYLQMNSLRAEDTAVYYCARSLARTTAMDYWGEGTLVTVSSAKTTPPSVYPLAPGSAAQTNSMVTLGCLVKGYFPEPVTVTWNSGSLSSGVHTFPAVLQSDLYTLSSSVTVPSSTWPSETVTCNVAHPASSTKVDKKIVPRDCGCKPCICENYEVEYVFIFPPKPKDVLTITLTPKVTCVVVDISKDDPEVQFSWFVDDVEVHTAQTQPREEQFNSTFRSVSELPIMHQDWLNGKEFKCRVNSAAFPAPIEKTISKTKGRPKAPQVYTIPPPKEQMAKDKVSLTCMITDFFPEDITVEWQWNGQPAENYKNTQPIMDTDGSYFVYSKLNVQKSNWEAGNTFTCSVLHEGLHNHHTEKSLSHSPGK
light: not shown
notes: copies: 2 + 2
- relative mFcγRIII-binding activity (mIgG1 = 1) [1]: 0.16 fold
- relative mFcγRII-binding activity (mIgG1 = 1) [2]: 1.83 fold
- Kd [3]: 2000 nM
- Kd [4]: 126 nM

B8: H237-MB647/MRAL-k0 (antibody)
heavy: QVQLQESGPGLVKPSETLSLTCAVSGHSISHDHAWSWVRQPPGEGLEWIGFISYSGITNYNPSLQGRVTISRDNSKNTLYLQMNSLRAEDTAVYYCARSLARTTAMDYWGEGTLVTVSSAKTTPPSVYPLAPGSAAQTNSMVTLGCLVKGYFPEPVTVTWNSGSLSSGVHTFPAVLQSDLYTLSSSVTVPSSTWPSETVTCNVAHPASSTKVDKKIVPRDCGCKPCICIPAEVEYVFIFPPKPKDVLTITLTPKVTCVVVDISKDDPEVQFSWFVDDVEVHTAQTQPREEQFNSTFRSVSELPIMHQDWLNGKEFKCRVNSAAFPAPIEKTISKTKGRPKAPQVYTIPPPKEQMAKDKVSLTCMITDFFPEDITVEWQWNGQPAENYKNTQPIMDTDGSYFVYSKLNVQKSNWEAGNTFTCSVLHEGLHNHHTEKSLSHSPGK
light: not shown
notes: 'T2301' read as T230I; copies: 2 + 2
- relative mFcγRIII-binding activity (mIgG1 = 1) [1]: 0.12 fold
- relative mFcγRII-binding activity (mIgG1 = 1) [2]: 1.16 fold
- Kd [3]: 2800 nM
- Kd [4]: 200 nM

B9: H237-MB638/MRAL-k0 (antibody)
heavy: QVQLQESGPGLVKPSETLSLTCAVSGHSISHDHAWSWVRQPPGEGLEWIGFISYSGITNYNPSLQGRVTISRDNSKNTLYLQMNSLRAEDTAVYYCARSLARTTAMDYWGEGTLVTVSSAKTTPPSVYPLAPGSAAQTNSMVTLGCLVKGYFPEPVTVTWNSGSLSSGVHTFPAVLQSDLYTLSSSVTVPSSTWPSETVTCNVAHPASSTKVDKKIVPRDCGCKPCICIPAEVENVFIFPPKPKDVLTITLTPKVTCVVVDISKDDPEVQFSWFVDDVEVHTAQTQPREEQFNSTFRSVSELPIMHQDWLNGKEFKCRVNSAAFPAPIEKTISKTKGRPKAPQVYTIPPPKEQMAKDKVSLTCMITDFFPEDITVEWQWNGQPAENYKNTQPIMDTDGSYFVYSKLNVQKSNWEAGNTFTCSVLHEGLHNHHTEKSLSHSPGK
light: not shown
notes: as for B8
- relative mFcγRIII-binding activity (mIgG1 = 1) [1]: 0.1 fold
- relative mFcγRII-binding activity (mIgG1 = 1) [2]: 0.83 fold
- Kd [3]: 3380 nM
- Kd [4]: 280 nM
